Publication PMC12934148

Assays:
[1] = system: Cas10-Csm K524E (Staphylococcus epidermidis); experiment: fluorescence polarization; details: no Mg2+, 1 mM EDTA, Kd only in Fig 8B, 50 mM Tris-HCl pH 8.0, 400 mM NH4Cl, 5% v/v glycerol, 0.025% w/v BSA, 10 nM RNA, 2 h at room temperature
[2] = system: Cas10-Csm R754E (Staphylococcus epidermidis); experiment: fluorescence polarization; details: no Mg2+, 1 mM EDTA, Kd only in Fig 8B, 50 mM Tris-HCl pH 8.0, 400 mM NH4Cl, 5% v/v glycerol, 0.025% w/v BSA, 10 nM RNA, 2 h at room temperature

Row | Sequence | binding signal (fold Kd vs same mutant on cognate) [1] | binding signal (fold Kd vs same mutant on cognate) [2] | binding signal (fold Kd vs wild type on cognate) [1] | binding signal (fold Kd vs wild type on cognate) [2]
1 | CUUUGUACUGAUGAUUUAUAUACAAGCCGAUACGUUCUCUAAA [pmRNA01-FMM2 (Nes target, segment 2 mismatch)] | 2.7 | 1.6 | – | –
2 | CUUUGUACUGAUGAUUUAUAUACUUCGGCAUACGUUCUCUAAA [pmRNA01-F (Nes cognate target)] | – | – | 1.8 | 2.8
